Measurements as given in article PMC2918688 (Molecular immunology, 2010).
Each block holds one binder with its values, some of them ahead of it.

B1: purified cJun (natural protein, human, UniProt P05412 1-331, looked up)
chain: MTAKMETTFYDDALNASFLPSESGPYGYSNPKILKQSMTLNLADPVGSLKPHLRAKNSDLLTSPDVGLLKLASPELERLIIQSSNGHITTTPTPTQFLCPKNVTDEQEGFAEGFVRALAELHSQNTLPSVTSAAQPVNGAGMVAPAVASVAGGSGSGGFSASLHSEPPVYANLSNFNPGALSSGGGAPSYGAAGLAFPAQPQQQQQPPHHLPQQMPVQHPRLQALKEEPQTVPEMPGETPPLSPIDMESQERIKAERKRMRNRIAASKCRKRKLERIARLEEKVKTLKAQNSELASTANMLREQVAQLKQKVMNHVNSGCQLMLTQQLQTF

Legend:
Assay in all cases: pull-down
[1] = molecular target: T1, GST-NFATc2 (full-length) (human, UniProt Q13469-2 1-921)
T1 sequence (looked up): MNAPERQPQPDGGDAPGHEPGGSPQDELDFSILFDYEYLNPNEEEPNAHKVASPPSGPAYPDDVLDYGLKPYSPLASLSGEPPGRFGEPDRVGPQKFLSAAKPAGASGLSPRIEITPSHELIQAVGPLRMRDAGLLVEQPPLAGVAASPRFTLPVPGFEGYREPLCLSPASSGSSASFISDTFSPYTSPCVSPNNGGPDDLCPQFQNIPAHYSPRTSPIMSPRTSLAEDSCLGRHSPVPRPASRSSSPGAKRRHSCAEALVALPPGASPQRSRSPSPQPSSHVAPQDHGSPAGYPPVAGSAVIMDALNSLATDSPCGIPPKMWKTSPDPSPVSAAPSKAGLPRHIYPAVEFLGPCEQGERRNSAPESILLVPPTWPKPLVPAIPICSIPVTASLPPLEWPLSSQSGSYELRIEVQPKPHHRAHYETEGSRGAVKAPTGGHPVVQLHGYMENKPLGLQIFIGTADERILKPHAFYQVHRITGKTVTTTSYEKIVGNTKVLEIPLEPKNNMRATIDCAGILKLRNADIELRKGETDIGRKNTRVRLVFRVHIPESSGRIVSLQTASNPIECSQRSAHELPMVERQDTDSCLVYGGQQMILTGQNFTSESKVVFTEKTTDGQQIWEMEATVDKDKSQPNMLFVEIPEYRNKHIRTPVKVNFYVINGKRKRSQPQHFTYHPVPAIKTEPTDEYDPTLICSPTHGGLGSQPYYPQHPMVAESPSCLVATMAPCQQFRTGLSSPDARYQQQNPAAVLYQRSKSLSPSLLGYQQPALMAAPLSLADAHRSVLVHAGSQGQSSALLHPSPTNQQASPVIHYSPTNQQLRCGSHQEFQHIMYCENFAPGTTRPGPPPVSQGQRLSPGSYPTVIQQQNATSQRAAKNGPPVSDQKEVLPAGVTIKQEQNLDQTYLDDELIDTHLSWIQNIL

[2] = molecular target: B1
[3] = molecular target: T2, HA-NFATc2 (human, UniProt Q13469-2 1-921)
T2 sequence (looked up): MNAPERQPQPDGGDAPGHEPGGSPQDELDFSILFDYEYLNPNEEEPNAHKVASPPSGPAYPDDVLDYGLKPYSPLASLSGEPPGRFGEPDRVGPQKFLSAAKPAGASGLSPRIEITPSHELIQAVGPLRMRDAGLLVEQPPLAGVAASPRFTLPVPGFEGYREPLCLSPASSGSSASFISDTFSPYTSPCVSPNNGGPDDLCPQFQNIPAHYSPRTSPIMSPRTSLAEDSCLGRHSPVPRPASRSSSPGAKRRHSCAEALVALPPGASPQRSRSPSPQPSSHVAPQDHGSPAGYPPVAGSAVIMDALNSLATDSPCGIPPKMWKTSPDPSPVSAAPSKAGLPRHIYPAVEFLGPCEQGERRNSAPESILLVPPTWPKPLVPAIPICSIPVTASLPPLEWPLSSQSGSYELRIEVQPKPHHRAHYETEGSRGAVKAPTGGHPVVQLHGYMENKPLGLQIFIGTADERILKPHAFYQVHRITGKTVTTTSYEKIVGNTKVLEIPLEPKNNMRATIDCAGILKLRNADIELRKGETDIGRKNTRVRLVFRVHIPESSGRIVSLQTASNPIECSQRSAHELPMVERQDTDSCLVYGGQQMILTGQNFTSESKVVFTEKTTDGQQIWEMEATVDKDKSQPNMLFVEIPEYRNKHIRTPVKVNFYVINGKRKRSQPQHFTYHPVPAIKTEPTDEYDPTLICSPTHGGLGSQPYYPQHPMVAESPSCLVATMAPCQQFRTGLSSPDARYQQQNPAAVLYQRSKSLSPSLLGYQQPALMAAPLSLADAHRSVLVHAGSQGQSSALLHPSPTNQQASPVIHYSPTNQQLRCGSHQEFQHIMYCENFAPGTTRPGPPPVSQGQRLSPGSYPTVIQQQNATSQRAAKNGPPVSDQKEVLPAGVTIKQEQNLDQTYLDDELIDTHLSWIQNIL

Binder: B1
binding result [1]: binds

binding result [2]: binds
B2: GST-NFATc2(688–921) (domain or fragment, human, UniProt Q13469-2 688-921, looked up)
chain: EYDPTLICSPTHGGLGSQPYYPQHPMVAESPSCLVATMAPCQQFRTGLSSPDARYQQQNPAAVLYQRSKSLSPSLLGYQQPALMAAPLSLADAHRSVLVHAGSQGQSSALLHPSPTNQQASPVIHYSPTNQQLRCGSHQEFQHIMYCENFAPGTTRPGPPPVSQGQRLSPGSYPTVIQQQNATSQRAAKNGPPVSDQKEVLPAGVTIKQEQNLDQTYLDDELIDTHLSWIQNIL

B3: GST-cJun(1–317) (domain or fragment, human, UniProt P05412 1-317, looked up)
chain: MTAKMETTFYDDALNASFLPSESGPYGYSNPKILKQSMTLNLADPVGSLKPHLRAKNSDLLTSPDVGLLKLASPELERLIIQSSNGHITTTPTPTQFLCPKNVTDEQEGFAEGFVRALAELHSQNTLPSVTSAAQPVNGAGMVAPAVASVAGGSGSGGFSASLHSEPPVYANLSNFNPGALSSGGGAPSYGAAGLAFPAQPQQQQQPPHHLPQQMPVQHPRLQALKEEPQTVPEMPGETPPLSPIDMESQERIKAERKRMRNRIAASKCRKRKLERIARLEEKVKTLKAQNSELASTANMLREQVAQLKQKVMNHVN
binding result [3]: binds
